Legend:
[1] = target: fully lipid-modified Shh secreted by human HT29 cells (human) (UniProt Q15465); test: cell-based or functional assay
[2] = target: biotinylated-ShhN-Cys (human Shh residues 24-197, N-terminal His6-tag, biotin conjugated) (human) (UniProt Q15465); test: competition ELISA: 5E1 against immobilized Hhip1β12 for biotinylated ShhN-Cys
[3] = target: Human Ihh (residues 29-202), N-terminal His6-tag (human) (UniProt Q14623); test: SPR (BIAcore-2000), 5E1 IgG immobilized on CM5, Hh injected, 1:1 Langmuir fit
[4] = target: Shh (human Sonic hedgehog residues 25-197, N-terminal His6-tag) (human) (UniProt Q15465); test: as above
[5] = target: Shh649 (ShhC-Cys conjugated with DyLight 649 Maleimide) (human) (UniProt Q15465); test: FACS competition: 1 nM Shh649 preincubated with 5E1, then bound to Ptch1-expressing 293 cells; the blocked partner is Ptch1

Chain of Human Ihh (residues 29-202), N-terminal His6-tag (human) (Q14623 other isoform, or with tags, fused parts or gaps limits assumed): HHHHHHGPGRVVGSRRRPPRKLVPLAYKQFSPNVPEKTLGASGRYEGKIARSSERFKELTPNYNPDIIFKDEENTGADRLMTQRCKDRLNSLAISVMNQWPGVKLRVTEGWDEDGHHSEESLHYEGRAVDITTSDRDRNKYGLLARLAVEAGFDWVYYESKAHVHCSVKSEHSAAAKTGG

## Hhip1ECD (Hhip1 extracellular domain, residues 20-667), N-terminally His6-tagged (from UniProt Q96QV1 20-667) (receptor)
[1]
  IC50, inhibition of Gli-luciferase activity in HT29/S12 co-culture: 5.3 nM

## anti-Shh monoclonal antibody 5E1
[2]
  IC50: 23 nM
[3]
  Kd: 3 nM
[4]
  Kd: 3 nM
[5]
  IC50 (read off the curve): 0.5 nM

— US20110129457A1
